Experimental data reported in patent publication US20090192289A1 (Genentech, published 2009).
Where no end group is shown, it is not given here. The star is where a group is joined. Biotin = O=C1N[C@H]2[C@H](CS[C@H]2CCCCC(=O)*)N1

T1: GST-Omi PDZ fusion protein (human, UniProt O43464 359-458)
T1 construct: also called GST-hOmiPDZ; hOmi PDZ domain; not shown: glutathione S-transferase (GST) encoded by plasmid pGEX6P-3
T1 sequence: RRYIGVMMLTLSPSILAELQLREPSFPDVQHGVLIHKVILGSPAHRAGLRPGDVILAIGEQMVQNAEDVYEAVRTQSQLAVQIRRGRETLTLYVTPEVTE

T2: phage-displayed Omi PDZ (phagemid p8hOmi) (human; M13 bacteriophage)
T2 construct: Multivalent display on phage; not shown: M13 gene-8 coat protein
T2 chain: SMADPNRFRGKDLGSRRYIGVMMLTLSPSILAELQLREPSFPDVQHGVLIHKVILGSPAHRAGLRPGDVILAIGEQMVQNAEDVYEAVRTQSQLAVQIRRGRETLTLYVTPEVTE

B1: hOmi_n1_t7 (peptide)
peptide: H-WWGGWLG-NH2
notes: also called WWGGWLG
B2: biotin-SWTMFWV (peptide)
peptide: Biotin-SWTMFWV
notes: Immobilized on NeutrAvidin-coated plates for shotgun library sorting
B3: hOmi_n1_t8 (peptide)
peptide: H-WGGWLG-NH2
notes: also called WGGWLG
B4: hOmi_n1_t4 (peptide)
peptide: H-SHWWG-NH2
notes: also called SHWWG

Tests used:
[1] = biological target: T1, GST-Omi PDZ fusion protein; experiment: competition ELISA, immobilized biotin-GWTMFWV
Experimental: Affinity Assays—The binding affinities of peptides for Omi PDZ were determined as IC₅₀ values using a previously described competition ELISA(18). The IC₅₀ value was defined as the concentration of peptide that blocked 50% of PDZ domain binding to immobilized peptide. Assay plates were prepared by immobilizing an amino-terminally biotinylated peptide (biotin-GWTMFWV) on maxisorp plates coated with NeuTravidin and blocked with BSA. A fixed concentration of GST-Omi PDZ fusion protein (20 nM) in PBS, 0.5% BSA, 0.1% Tween 20 (PBT buffer) was preincubated for 1 h with serial dilutions of peptide and then transferred to the assay plates. After 1 h incubation, the plates were washed with PBS, 0.05% Tween 20, incubated for 30 min with HRP/anti-GST antibody (1:10,000) in PBT buffer, washed again, and detected with 3,3′,5,5′-Tetramethyl-benzidine/H₂O₂ (TMB) peroxidase substrate.

[2] = biological target: T2, phage-displayed Omi PDZ (phagemid …); experiment: phage selection and phage ELISA on NeutrAvidin-immobilized peptide
Experimental: Library Sorting and Analysis—Phage from the libraries described above were propagated in E. coli XL1-blue with the addition of KO7 helper phage. After overnight growth at 37° C. (for peptide library) or 30° C. (for shotgun library), phage were concentrated by precipitation with PEG/NaCl and resuspended in PBS, 0.5% BSA, 0.1% Tween 20, as described previously(19). Phage solutions (10¹² phage/mL) were added to 96-well maxisorp immunoplates that had been coated with capture target and blocked with BSA. For shotgun library sorting, two different targets were used; for the display selection the target was an immobilized antibody that recognized the epitope tag fused to the N terminus of Omi PDZ, while for the function selection a biotinylated peptide that binds to Omi PDZ with high affinity (biotin-SWTMFWV) was immobilized on NeutrAvidin-coated plates. Following a 2 h incubation to allow for phage binding, the plates were washed 10 times with PBS, 0.05% Tween 20. Bound phage were eluted with 0.1 M HCl for 10 min and the eluent was neutralized with 1.0 M Tris base. Eluted phage were amplified in E. Coli XL1-blue and used for further rounds of selection.
Shotgun alanine-scanning of Omi PDZ domain—By superimposing the structure of Omi PDZ with the structure of Erbin PDZ-ligand complex(20), we identified a region that is directly involved or adjacent to the peptide binding site. […]

Binder | binding result [1] | binding result [2]
B1 | no binding | 
B2 |  | binds
B3 | no binding | 
B4 | no binding | 
